T1: recombinant human CXCL1 protein (human, UniProt P09341 35-107)
T1 construct: also called human chemokine CXCL1; soluble recombinant human CXCL1
T1 sequence: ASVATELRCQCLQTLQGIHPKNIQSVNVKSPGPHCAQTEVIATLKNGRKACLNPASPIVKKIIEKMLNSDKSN

T2: mouse CXCL1 (mouse, UniProt P12850 25-96, limits assumed)
T2 sequence (looked up): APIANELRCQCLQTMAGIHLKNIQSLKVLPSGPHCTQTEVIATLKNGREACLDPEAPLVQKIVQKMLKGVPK

T3: rat CXCL1 (rat, UniProt P14095 25-96, limits assumed)
T3 sequence (looked up): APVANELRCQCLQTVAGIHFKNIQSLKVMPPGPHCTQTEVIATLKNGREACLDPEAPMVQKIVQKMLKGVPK

B1: anti-CXCL1 neutralizing monoclonal mouse antibody (HL2401) (antibody, V domains shown)
VH: EVKLVESGAELVKPGASVKLSCKASGYTFTSYYIYWVKQRPGQGLEWIGEIDPSHGGPTFNEKFKNKATLTVDKSSSTAYMQLSSLTSDDSAVYYCTRESGTGAMDYWGQGTTLTVSS
VL: DIVLTQSPASLAVSLGQRATISCKASQSVDYDGDSYVNWYQQKPGQPPKLLIYAASNLESRIPARFSGSGSGTDFTLNILPVEEDDGATYYCQQSSEDPWTFGGGTKLEIKR
notes: also called CXCL1 mAb (HL2401); mouse anti-human CXCL1 antibody HL2401
B2: Hum2401 IgG antibody (antibody, V domains shown)
VH: QVQLVESGGGLVQPGGSLRLSCKASGYTFTSYYIYWVRQAPGKGLEWIGEIDPSHGGPTFNEKFKNRFTISRDNSKNTLYLQMNSLRAEDTAVYYCTRESGTGAMDYWGQGTLVTVSS
VL: DIQMTQSPSSLSASVGDRATISCKASQSVDYDGDSYVNWYQQKPGKAPKLLIYAASNLESGIPSRFSGSGSGTDFTLTISSLQPEDFATYYCQQSSEDPWTFGQGTKVEIKR
notes: also called Hum2401 Ab; Pcmvdhfr-Hum2401(H+L)

Columns and labels:
[1] = molecular target: T1, recombinant human CXCL1 protein; test: apparent affinity-binding constant, in PBS; method not stated; in PBS
[2] = molecular target: T1, recombinant human CXCL1 protein; test: apparent KD from the absorbance (450 nm) curve in human serum diluted 1:4
[3] = molecular target: T1, recombinant human CXCL1 protein; test: apparent affinity-binding constant, in serum 1:40 dilution; method not stated; serum, 1:40 dilution
mouse CXCL1 = molecular target: T2, mouse CXCL1; test: immunoblot strip (the text does not name the assay); 10, 20 and 30 ng of CXCL1 of each species loaded
rat CXCL1 = molecular target: T3, rat CXCL1; test: as above
[4] = molecular target: T1, recombinant human CXCL1 protein; test: ELISA, human CXCL1 coated 30 ng per well, IgG 1/10 dilute original, donkey anti-human HRP, TMB
Experimental: The human CXCL1 protein was coated onto 96-well, 30 ng for well at 4° C. overnight. The plate was blocked by 3% skim milk in PBS 2 h at room temperature. The plate was washed 3 times with PBST and applied anti-human CXCL1 humanized version IgG antibodies were diluted 1/100 and 1/10 in PBS and subjected into antigen coated plate for 1 h at room temperature. The donkey anti-human monoclonal antibody with HRP conjugate antibody was diluted 1/3000 and applied for 45 min at room temperature, afterwards washed 3 times with PBST and developed with TMB solution.

| Kd [1] | Kd [2] | Kd [3] | binding result (mouse CXCL1) | binding result (rat CXCL1) | ELISA signals [4] | Binder |
| --- | --- | --- | --- | --- | --- | --- |
| 0.176 µg/mL | 0.387 µg/mL | 0.252 µg/mL | no binding (tested: 30 ng) | no binding (tested: 30 ng) | – | B1 |
| – | – | – | – | – | 2.1 | B2 |

From patent US20240018229A1 (published 2024)
